# Laboratory results reported in IntAct's records for PubMed 17392269.
# B1: Protein Pixie (Drosophila melanogaster (Fruit fly)), Q9VSS1 (parent)
# chain: MSRRKENEEVDKQTRIAIVSDDKCKPKRCRQECKKTCPVVRMGKLCIEVTPTSKIASLSEELCIGCGICVKKCPFEAITIINLPSNLEKHTTHRYSKNSFKLHRLPIPRPGEVLGLVGQNGIGKSTALKILAGKQKPNLGKYANPPDWTEILSYFRGSELQNYFTKILEDNLKALVKPQYVDQIPKAVRGAVGDLLDKKDERELQTKICEMLDLSHIRDREIAQLSGGELQRFAIAMVCIQNADIFMFDEPSSYLDVKQRLNAALTIRSLLHPTKFIIVVEHDLSVLDYLSDFICCLYGVPGCYGVVTMPFSVREGINIFLDGFVPTENMRFRTESLTFKVSESATEEEIKRMNHYVYPAMVKTLGKFELTVEKGHFSDSEILVLLGENGTGKTTFIRMLAGNLQPDGEVELPMLNISYKPQKISPKFQNHVRHLLHDKIRDAYVHPQFIADVMKPMKIEEIMDQEVQNLSGGELQRVALVLCLGKPADVYLIDEPSAYLDSEQRLVAAKVIKRYILHAKKTGFVVEHDFIMATYLADRVIVIEGQPSVKTTAFSPQSLLNGMNRFLELLGITFRRDPNNFRPRINKNNSVKDTEQKRSGQFFFLEDEACN
# partner: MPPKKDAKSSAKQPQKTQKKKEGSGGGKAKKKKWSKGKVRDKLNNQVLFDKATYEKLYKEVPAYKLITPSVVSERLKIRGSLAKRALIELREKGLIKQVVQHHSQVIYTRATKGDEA
# Variants of: B1
# Conditions: with rs25_drome RpS25, P48588
row,Variant,effect of a mutation on the interaction
1,E503Q,increasing interaction
